Molecular target: T1, Neisserial heparin-binding antigen (NHBA) peptide 20 (Neisseria meningitidis strain 2996, UniProt Q9JPP1 18-427)
T1 construct: NHBA variant p20 (short variant) of N. meningitidis strain 2996, UniProt Q9JPP1; also called NHBA p20; NHBAp20
T1 sequence: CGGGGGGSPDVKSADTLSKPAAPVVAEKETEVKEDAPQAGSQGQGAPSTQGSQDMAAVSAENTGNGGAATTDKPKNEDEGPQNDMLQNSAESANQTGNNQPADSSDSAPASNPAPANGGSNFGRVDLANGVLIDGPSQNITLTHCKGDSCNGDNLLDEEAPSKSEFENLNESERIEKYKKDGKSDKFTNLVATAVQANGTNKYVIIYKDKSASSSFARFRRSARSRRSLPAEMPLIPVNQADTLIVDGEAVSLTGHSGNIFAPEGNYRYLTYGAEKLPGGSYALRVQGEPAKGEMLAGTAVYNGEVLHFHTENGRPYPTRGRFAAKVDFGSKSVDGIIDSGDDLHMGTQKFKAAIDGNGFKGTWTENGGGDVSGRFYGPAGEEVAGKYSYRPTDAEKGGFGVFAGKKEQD
Experiment: SPR; Biacore T200, 25 °C; Fab (800-1100 RU) captured by anti-Fab mAbs (Human Fab Capture Kit) on a CM5 chip; NHBA injected, single-cycle kinetics, five injections 6.25-100 nM, 30 µl/min; HBS-EP (10 mM HEPES, 150 mM NaCl, 3 mM EDTA, 0.05% P20, pH 7.4); 1:1 Langmuir model with mass-transfer term; duplicate
Conditions: both partners purified

B1: Fab 12E1 (Fab, V domains shown)
VH: QVQLVQSGAEVKKPGASVKVSCKASGYIFTSHPIHWVRQAPGQRPEWMGWINAGNGNTKYSQKFQDRVNLTRDTSASTVFMELINLRFEDTAIYYCIRETKFDPWGQGTLVTVSS
VL: EIVLTQSPLSLPVTLGQPASISCRSSQDLVYRDGITYLNWFQQRPGQSPRRLIYKVSNRDSGVPDRFSGSGSGTDFTLRISRVEAEDIGVYYCMQGTHWPITFGQGTRLEIKR
notes: heavy chain of Fab 12E1 (human VH, human IgG1 CH1) as left after TEV cleavage; light chain of Fab 12E1; Fab cloned from a human monoclonal antibody of a Bexsero vaccinee; also called anti-NHBA human Fab 12E1; source: Expi293 cells, transient transfection, purified from supernatant (StrepTrap HP, TEV cleavage, Superdex 200); not shown: double Strep-tag II, C-terminal, cleaved
Q: B1 was tested. Which Kd did it give?
A: 6.2 nM

Q: What about the koff of the same binder?
A: 0.0003 s⁻¹

Q: And the kon?
A: 49000 M⁻¹ s⁻¹

— paper PMC5458386, “Crystal structures of human Fabs targeting the Bexsero meningococcal vaccine antigen NHBA” (Acta Crystallographica. Section F, Structural Biology …, 2017)
